Laboratory results taken from publication PMC7109055.

Columns and labels:
[1] = molecular target: His6-VanSSC (full-length VanS sensor histidine kinase from Streptomyces coelicolor) (Streptomyces coelicolor) (UniProt Q9X942); test: native gel or EMSA
[2] = molecular target: His6-VanSSC (full-length VanS sensor histidine kinase from Streptomyces coelicolor) (Streptomyces coelicolor) (UniProt Q9X942); test: SEC; analytical gel filtration on Superose 12 10/300; 20 mM HEPES pH 7.8, 200 mM NaCl (legend: 300 mM NaCl), 0.075% DPC; elution volume compared with protein standards

Question: With “His6-VanSSC (full-length VanS sensor histidine kinase from Streptomyces coelicolor) (from UniProt Q9X942 1-364) (enzyme)” as the substance, how does the stoichiometry N [1] read?
Answer: Its stoichiometry N is 2.

Question: And the stoichiometry N [2]?
Answer: The stoichiometry N was 2.
